Results as given in doi:10.1101/2024.12.01.621710 (bioRxiv, 2024).
Where “and” joins values, the source holds several entries; their conditions need not be identical. Identical values can stand only once. Like-named read-outs stand apart in the source and are kept apart here.

Tests used:
[1] = target: MBP-IPAM C-ter (Chlamydia trachomatis serovar L2 (LGV 434/Bu)); test: SEC + other: mass photometry
[2] = target: MBP-InaC C-ter (Chlamydia trachomatis serovar L2 (LGV 434/Bu)); test: SEC + other: mass photometry
[3] = target: MBP-IncA C-ter (Chlamydia trachomatis serovar L2 (LGV 434/Bu)); test: SEC + other: mass photometry
[4] = target: the molecule itself
[5] = target: the molecule itself; test: SEC + other: mass photometry

With MBP-IPAM C-ter (domain or fragment) the stoichiometry N [1] was 2 and 3.

For MBP-InaC C-ter (domain or fragment), the stoichiometry N [2] was 2 and 3.

In the case of MBP-IncA C-ter (domain or fragment), the stoichiometry N [3] is reported as 4.

B1: MBP-CpoS C-ter (domain or fragment)
chain: ARARSRRVEIERQLEVVSMQIEELEEEYKALSEVYRANLEARRAVSKYCQELEEKILDLCKRHAATICSIEEDAKQEIRHQTERFKQRLQQNQNTCSQLTAELCKLRSENKALSERLQVQASRRKK
With B1 the “stoichiometry N” value [4] was 2 and the “stoichiometry N” value [5] was 4 and 8.
